Experimental data as given in patent US20200188539A1.

Biological target: prostate specific membrane antigen (human (human prostate LNCaP cells)) (UniProt Q04609)
Assay: cell-based or functional assay

Sequence of prostate specific membrane antigen (human (human prostate LNCaP cells)) (Q04609 whole entry): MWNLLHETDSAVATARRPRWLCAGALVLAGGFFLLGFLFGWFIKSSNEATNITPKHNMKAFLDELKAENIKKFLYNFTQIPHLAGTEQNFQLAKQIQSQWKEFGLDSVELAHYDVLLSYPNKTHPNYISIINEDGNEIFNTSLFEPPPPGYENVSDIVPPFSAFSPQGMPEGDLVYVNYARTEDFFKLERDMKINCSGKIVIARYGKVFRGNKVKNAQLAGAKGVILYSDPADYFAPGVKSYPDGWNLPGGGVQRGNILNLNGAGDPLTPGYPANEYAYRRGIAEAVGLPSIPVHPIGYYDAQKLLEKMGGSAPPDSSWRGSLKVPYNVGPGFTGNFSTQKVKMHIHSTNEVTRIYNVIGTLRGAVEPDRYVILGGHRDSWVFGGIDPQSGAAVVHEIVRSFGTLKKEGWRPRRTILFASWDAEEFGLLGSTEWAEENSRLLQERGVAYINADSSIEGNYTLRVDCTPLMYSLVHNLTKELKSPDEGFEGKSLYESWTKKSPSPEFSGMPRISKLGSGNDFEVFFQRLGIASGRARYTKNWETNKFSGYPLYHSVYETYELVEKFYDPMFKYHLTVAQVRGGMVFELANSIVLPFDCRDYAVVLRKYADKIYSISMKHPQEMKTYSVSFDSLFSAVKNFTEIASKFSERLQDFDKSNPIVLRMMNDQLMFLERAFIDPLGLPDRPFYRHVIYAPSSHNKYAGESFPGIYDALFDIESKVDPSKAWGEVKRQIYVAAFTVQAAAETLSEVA

IC50 (NAALADase assay in human prostate LNCaP cells, [N-acetyl aspartyl 3H-glutamate]): 9.3 nM | IC50 LNCaP cells (NAALADase assay, [N-acetyl aspartyl 3H-glutamate] substrate, LNCaP homogenized cell membranes): 10.5 nM
Substance: [DUPA-6-Ahx-Lys(DOTA)-6-Ahx-RM2] (peptide)
